The values that follow come from article PMC10297652, “Large-Scale Production of Anti-RNase A VHH Expressed in pyrG Auxotrophic Aspergillus oryzae” (Current Issues in Molecular Biology, 2023).

The test addresses T1, RNase A (Bos taurus (assumed; commercial RNase …, UniProt P61823).
T1 construct: RNase A (ribonuclease A), about 13.7 kDa, commercial; also called ribonuclease A; source: bought: Biofroxx (1263MG050)
Nature of the test: SPR; BIAcore T200, CM5 chip; Asp. VHH captured on flow cell 4; RNase A injected at 0, 2, 10, 50 nM, multi-cycle kinetics; HBS-EP+ pH 7.4; 25 °C; 1:1 binding model. Conditions: both partners purified. A general note: SPR reads the build-up and loss of mass on a sensor chip optically.

T1 sequence (P61823 27-150): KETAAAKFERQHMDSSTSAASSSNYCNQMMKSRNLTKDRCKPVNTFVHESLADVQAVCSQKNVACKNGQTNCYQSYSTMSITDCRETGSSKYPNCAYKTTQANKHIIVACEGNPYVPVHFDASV

B1: anti-RNase A VHH expressed in pyrG auxotrophic Aspergillus oryzae (VHH)
VHH: QVQLVESGGGLVQAGGSLRLSCAASGYAYTYIYMGWFRQAPGKEREGVAAMDSGGGGTLYADSVKGRFTISRDKGKNTVYLQMDSLKPEDTATYYCAAGGYELRDRTYGQWGQGTQVTVSS
notes: DNA codon-optimized; about 13 kDa; also called Asp; VHH; anti-ribonuclease A VHH; source: pyrG(-) A. oryzae RIB40, secreted into the culture medium, purified (Ni-NTA IMAC, PD-10 desalting, Superdex 200 SEC); not shown: 8xHis, C-terminal, kept
In the case of B1, binding was put at a Kd of 1.91 nM.
